Experimental data taken from IntAct's records for PubMed 19162005.

B1: Regulator of cell cycle RGCC (Homo sapiens), Q9H4X1-2 (parent)
chain: MKPPAEDLSDALCEFDAVLADFASPFHERHFHYEEHLERMKRRSSASVSDSSGFSDSESADSLYRNSFSFSDEKLNSPTDSTPALLSATVTPQKAKLGDTKELEAFIADLDKTLASM

Variants of: B1
Settings: with akt1_human AKT1, P31749
Sequence of akt1_human AKT1, P31749 (P31749 whole entry): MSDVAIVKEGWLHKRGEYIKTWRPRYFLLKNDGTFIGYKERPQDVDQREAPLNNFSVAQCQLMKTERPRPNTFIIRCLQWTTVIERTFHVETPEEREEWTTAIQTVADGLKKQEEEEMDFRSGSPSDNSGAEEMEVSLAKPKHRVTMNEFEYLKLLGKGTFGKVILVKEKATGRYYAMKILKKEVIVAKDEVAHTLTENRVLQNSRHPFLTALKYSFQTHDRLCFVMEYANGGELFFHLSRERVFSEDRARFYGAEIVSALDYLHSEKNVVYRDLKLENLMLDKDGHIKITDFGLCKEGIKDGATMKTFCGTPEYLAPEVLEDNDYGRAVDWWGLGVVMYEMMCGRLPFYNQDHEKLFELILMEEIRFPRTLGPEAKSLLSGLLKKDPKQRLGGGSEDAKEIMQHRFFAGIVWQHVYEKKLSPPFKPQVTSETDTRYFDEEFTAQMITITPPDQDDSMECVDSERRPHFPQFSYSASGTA

| Variant | effect of a mutation on the interaction |
| --- | --- |
| MKPPAEDLSDALCEFDAVLADFASPFHERHFHYEEHLERMKRRSAAAVSDSSGFSDSESADSLYRNSFSFSDEKLNSPTDSTPALLSATVTPQKAKLGDTKELEAFIADLDKTLASM [S45A;S47A] | disrupting interaction |
